B1: P3A1hFc-PEG4-va-EDA-PNU (conjugate)
chain: TRVDQTPRTATKETGESLTINCVLTDTSYGLYSTSWFRKNPGTTDWERMSIGGRYVESVNKGAKSFSLRIKDLTVADSATYYCKAREARHPWLRQWYDGAGTVLTVNGGGGSGGGGSGGGGS
modifications: left off: a dimerising Fc or GST
B2: P3A1: VNAR domain, SEQ ID NO: 43 (protein)
VHH: TRVDQTPRTATKETGESLTINCVLTDTSYGLYSTSWFRKNPGTTDWERMSIGGRYVESVNKGAKSFSLRIKDLTVADSATYYCKAREARHPWLRQWYDGAGTVLTVN

Columns and labels:
MHH-ES1 = assay: In vitro cell viability assay (Cell Titre Glo), VNAR drug conjugates: MHH-ES1; format: cell-based, human
Protocol: (§1) In Vitro Cell Viability Assays for Cancer Cells Treated with Anti ROR1 VNAR Drug Conjugates
(§2) Cells were seeded into white, clear bottom 96 well plates (Costar) and incubated at 37° C., 5% CO2 for 24 hours. On the following day, dilution series were set up for each test agent at ×10 working stocks. The dose response ×10 stock was: 10000, 5000, 1000, 500, 100, 50, 10, 5, 1, 0.5 nM etc. 10 μL of the ×10 stock solutions were added to the cell plates (90 μl per well) using a multichannel pipette. […] 100d of vehicle control (PBS) was added to the control wells (columns 11 and 12). Plates were incubated at 37′C, 5% CO2 for 72-96 hours. Promega Cell litre Glo reagent was used as per the manufacturer's instructions to assess cell viability. Briefly, assay plates were removed from incubator and allowed to equilibrate to room temperature before adding […] of room temperature Cell litre Glo reagent to each 100 μl assay well. Plates were placed on a plate shaker for 2 minutes at 600 rpm. Plates were allowed to sit for a further 10 minutes at room temperature prior to measuring luminescence read-out using a Clariostar plate-reader (BMG). Data was analysed by calculating the average for untreated (vehicle only) control wells and determining the % of control for each treated well. % of control data was then plotted against Log [Treatment] concentration and the IC50 value derived using non-linear regression fitting in GraphPad Prism software.
(§3) The following cell lines were used: • Kasumi-2—human B cell leukaemia precursor; • PA-1—human ovarian cancer cell line; • PA-1 ROR1 ko—human ovarian cancer cell line with ROR1 knock-out; • 697—human B cell leukaemia precursor, and • MHH-ES1—human Ewing's sarcoma cell line.

[1] = Human plasma stability of protein-PNU conjugates (LC-MS of released payload); format: in vitro ADME; conditions: 37° C., up to 168 h, 4 or 2 uM PDC, LLOQ 0.1 or 0.156 uM
Protocol: Different conjugates were incubated at 37° C. for 168 h in human plasma at a final concentration of 4 μM or 2 μM of protein. Samples were analysed by LC-MS as a function of time up to and including 168 h and the amount of released PNU159682 and EDA-PNU159682 derivative was quantified by reference to calibration standards.

Cathepsin B = Cathepsin B (Homo sapiens, UniProt P07858); assay: Cathepsin B treatment of protein-PNU conjugates, payload release; format: in vitro ADME; conditions: after treatment with Cat B
Source text: Cathepsin B treatment of VNAR-hFc-vc-PAB-EDA-PNU conjugates and the corresponding conjugates of the multimeric proteins liberated free EDA-PNU159682 derivative in a quantitative fashion. Whereas, VNAR-hFc-va-EDA-PNU conjugates and the corresponding conjugates of the multimeric proteins were completely stable to Cathepsin B treatment.
Only the vc-PAB-EDA-PNU releases payload on treatment with CatB as expected for the conditions used in this in vitro assay. The release is quantitative—as the conjugates have a drug to antibody ratio of 2, then twice the concentration of payload released versus the concentration of conjugate is expected after CatB treatment. This expectation matches the data shown in Table 11 for vc-PAB-EDA-PNU conjugates.

697 = assay: In vitro cell viability assay (Cell Titre Glo), VNAR drug conjugates: 697; format: cell-based, human
Protocol: as §1, §2, §3

PA-1 ROR1 ko = assay: In vitro cell viability assay (Cell Titre Glo), VNAR drug conjugates: PA-1 ROR1 ko; format: cell-based, human
Protocol: as §1, §2, §3

PA-1 = assay: In vitro cell viability assay (Cell Titre Glo), VNAR drug conjugates: PA-1; format: cell-based, human
Protocol: as §1, §2, §3

[2] = Mouse plasma stability of protein-PNU conjugates (LC-MS of released payload); format: in vitro ADME; conditions: 37° C., 4 μM protein
Protocol: Different P3A1-hFc-PNU conjugates were incubated at 37° C. in mouse plasma at a final concentration of 4 μM of protein. Samples were analysed by LC-MS as a function of time and the amount of released PNU159682 and EDA-PNU159682 derivative was quantified by reference to calibration standards.

Kasumi-2 = assay: In vitro cell viability assay (Cell Titre Glo), VNAR drug conjugates: Kasumi-2; format: cell-based, human
Protocol: as §1, §2, §3

ROR1 = ROR1 (Homo sapiens, UniProt Q01973); conditions: VNAR domain; data in WO 2019/122447; cited from earlier work
[3] = ratio to corresponding non-binding 2V-hFc conjugate

Row | Molecule | IC50 (MHH-ES1; Table 5, 96 h) [nM] | ROR1 targeting/2V non-targeting window MHH-ES1 (MHH-ES1; [3]) | Observed EDA payload release [1] | EDA released, per cent of theoretical conc of payload (Cathepsin B; figure in brackets) [%] | Average Conc EDA Released (Cathepsin B; protein 10 uM (2VhFc conjugate 5 uM)) [µM] | IC50 (697; Table 5, 96 h) [nM] | ROR1 targeting/2V non-targeting window 697 697; [3] | IC50 (PA-1 ROR1 ko; Table 5, 96 h, PA-1 ROR1 ko) [nM] | ROR1 targeting/2V non-targeting window PA-1 31-J-06 (PA-1 ROR1 ko; ratio to corresponding non-binding 2V-hFc conjugate, PA-1 31-J-06 (ROR1 −/−; matches PA-1 ROR1 ko of Table 5)) | IC50 (PA-1; Table 5, 96 h) [nM] | ROR1 targeting/2V non-targeting window PA-1 (PA-1; [3]) | Concentration (nM) of free PNU payload detected by LC-MS, 4 h ([2]; 4 h) [nM] | Concentration (nM) of free PNU payload detected by LC-MS, 24 h ([2]; 24 h) [nM] | Concentration (nM) of free PNU payload detected by LC-MS, 48 h ([2]; 48 h) [nM] | Concentration (nM) of free PNU payload detected by LC-MS, 72 h ([2]; 72 h) [nM] | Concentration (nM) of free PNU payload detected by LC-MS, 96 h ([2]; 96 h) [nM] | Concentration (nM) of free PNU payload detected by LC-MS, 120 h ([2]; 120 h) [nM] | IC50 (Kasumi-2; Table 5, 96 h) [nM] | ROR1 targeting/2V non-targeting window Kasumi-2 (Kasumi-2; [3]) | binding to ROR1 (ROR1)
1 | B1 | 18 | 8.4 | no EDA-PNU detected at any time points | 1.7 | 0.36 | 61 | 4 | 11.3 | 4 | 0.15 | 360 | 3 | 4 | 1 | 2 | 5 | 3 | 2.3 | 43 | 
2 | B2 |  |  |  |  |  |  |  |  |  |  |  |  |  |  |  |  |  |  |  | bind to ROR1

Source: US20230241072A1, “ANTHRACYCLINE DERIVATIVES” (ALMAC DISCOVERY LIMITED, priority 2019, published 2023)
